Test results reported in IntAct's records for PubMed 26388029.

B1: Ubiquitin carboxyl-terminal hydrolase 1 (Homo sapiens), O94782 (parent)
chain: MPGVIPSESNGLSRGSPSKKNRLSLKFFQKKETKRALDFTDSQENEEKASEYRASEIDQVVPAAQSSPINCEKRENLLPFVGLNNLGNTCYLNSILQVLYFCPGFKSGVKHLFNIISRKKEALKDEANQKDKGNCKEDSLASYELICSLQSLIISVEQLQASFLLNPEKYTDELATQPRRLLNTLRELNPMYEGYLQHDAQEVLQCILGNIQETCQLLKKEEVKNVAELPTKVEEIPHPKEEMNGINSIEMDSMRHSEDFKEKLPKGNGKRKSDTEFGNMKKKVKLSKEHQSLEENQRQTRSKRKATSDTLESPPKIIPKYISENESPRPSQKKSRVKINWLKSATKQPSILSKFCSLGKITTNQGVKGQSKENECDPEEDLGKCESDNTTNGCGLESPGNTVTPVNVNEVKPINKGEEQIGFELVEKLFQGQLVLRTRCLECESLTERREDFQDISVPVQEDELSKVEESSEISPEPKTEMKTLRWAISQFASVERIVGEDKYFCENCHHYTEAERSLLFDKMPEVITIHLKCFAASGLEFDCYGGGLSKINTPLLTPLKLSLEEWSTKPTNDSYGLFAVVMHSGITISSGHYTASVKVTDLNSLELDKGNFVVDQMCEIGKPEPLNEEEARGVVENYNDEEVSIRVGGNTQPSKVLNKKNVEAIGLLGGQKSKADYELYNKASNPDKVASTAFAENRNSETSDTTGTHESDRNKESSDQTGINISGFENKISYVVQSLKEYEGKWLLFDDSEVKVTEEKDFLNSLSPSTSPTSTPYLLFYKKL

Variants of: B1
Settings: with WDR48, Q8TAF3-1
WDR48, Q8TAF3-1, sequence (Q8TAF3 whole entry): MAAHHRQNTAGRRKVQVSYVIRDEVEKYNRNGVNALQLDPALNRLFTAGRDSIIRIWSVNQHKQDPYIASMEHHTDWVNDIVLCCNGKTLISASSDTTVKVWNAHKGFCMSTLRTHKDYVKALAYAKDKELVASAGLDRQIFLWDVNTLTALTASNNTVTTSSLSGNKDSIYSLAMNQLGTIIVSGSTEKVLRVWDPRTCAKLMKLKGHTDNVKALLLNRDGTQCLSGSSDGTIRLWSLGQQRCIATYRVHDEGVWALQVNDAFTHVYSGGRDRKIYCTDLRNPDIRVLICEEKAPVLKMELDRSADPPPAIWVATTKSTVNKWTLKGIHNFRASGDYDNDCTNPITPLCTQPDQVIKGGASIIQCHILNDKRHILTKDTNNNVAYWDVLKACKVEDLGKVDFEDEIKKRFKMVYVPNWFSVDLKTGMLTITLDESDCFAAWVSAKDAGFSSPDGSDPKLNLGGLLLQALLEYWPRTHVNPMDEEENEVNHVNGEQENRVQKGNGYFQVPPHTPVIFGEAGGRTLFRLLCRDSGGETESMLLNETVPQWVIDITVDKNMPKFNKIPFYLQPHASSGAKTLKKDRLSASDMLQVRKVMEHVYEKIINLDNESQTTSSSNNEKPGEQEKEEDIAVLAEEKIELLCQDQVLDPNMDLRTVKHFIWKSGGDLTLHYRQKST

| effect of a mutation on the interaction | Variant |
| --- | --- |
| disrupting interaction strength | E444K |
